In US20210371527A1 (published 2021):
Read-outs that look alike come from different tables or passages of the source.

Tests used:
[1] = target: T1, human CD4 on HPB-ALL cells (UniProt P01730 26-458); assay: flow cytometry
[2] = target: T1, human CD4 on HPB-ALL cells; assay: flow cytometry; remark: listed apart in the source

B1: deferoxamine conjugated humanized IAB41-1 minibody (other)
chain: EIVLTQSPATLSLSPGERATLSCSARSSVSYLYWYQQKPGQAPRLLIYDTSNLASGIPDRFSGSGSGTDFTLTISRLEPEDAAVYYCQQWSDYPLTFGGGTKLEIKGSTSGGGSGGGSGGGGSSQVQLVQSGAEVKKPGASVKVSCKASGYSFANYWMHWVRQAPGQRLEWIGALYPGNVDTTYNQKFQGRVTITRDTSASTAYMELSSLRSEDTAVYYCTRMGTTLEAPLDYWGQGTLVTVSSEPKSSDKTHTCPPCPPCGGGSSGGGSGGQPREPQVYTLPPSREEMTKNQVSLTCLVKGFYPSDIAVEWESNGQPENNYKTTPPVLDSDGSFFLYSKLTVDKSRWQQGNVFSCSVMHEALHNHYTQKSLSLSPG
modifications: deferoxamine (Df) chelator conjugated; sites of conjugation not stated
EC50 [1]: 3.05 nM

B2: humanized IAB41-1 minibody (other)
chain: B1 chain
EC50 [2]: 1.77 nM
